The target of this assay is influenza A virus RNA polymerase (FluAPol) heterotrimer of human influenza A/NT/60/1968 (H3N2) (human influenza A/NT/60/1968 (H3N2) virus) (UniProt P03429). Description: cryo-EM structure.

Where “and” joins values, the source holds several entries; their conditions need not be identical. Identical values can stand only once.

For “influenza A virus RNA polymerase (FluAPol) heterotrimer of human influenza A/NT/60/1968 (H3N2) (from UniProt P03429) (complex)”, the stoichiometry N (usually the number of molecules, sites or subunits per partner or assembly) is 2 and 6.

Source of the values: publication PMC11549089.
